Measured values reported in patent publication US20250339569A1 (3B PHARMACEUTICALS, published 2025).
One block for each binder: values may come before it. Starred links: 1 amine or outer side, 2 acyl side, 3 side chain; linkers in the order of their positions; H or OH if unused. Positions of bridges follow the written chain, without caps; N, C: chain ends. Non-standard residues stand in square brackets, D forms with d. Primed or numbered codes have the meaning given here. *: point of attachment. Af3(Hspy) = 3-amino-L-phenylalanine, ring amine acylated with 4-sulfamoyl-1H-pyrrole-2-carboxylic acid, NS(=O)(=O)c1c[nH]c(C(=O)Nc2cccc(C[C@H](N[*:1])C(=O)[*:2])c2)c1; Aph(6SaPyr3) = 4-amino-L-phenylalanine, ring amine acylated by 6-sulfamoylpyridine-3-carboxylic acid, NS(=O)(=O)c1ccc(C(=O)Nc2ccc(C[C@H](N[*:1])C(=O)[*:2])cc2)cn1; Aph(Hsfu) = 4-amino-L-phenylalanine, ring amine acylated with 4-sulfamoylfuran-2-carboxylic acid, NS(=O)(=O)c1coc(C(=O)Nc2ccc(C[C@H](N[*:1])C(=O)[*:2])cc2)c1; Aph(SaPr)″ = 4-amino-L-phenylalanine, ring amine acylated with 3-sulfamoylpropanoic acid, NS(=O)(=O)CCC(=O)Nc1ccc(C[C@H](N[*:1])C(=O)[*:2])cc1; Af3(Btda) = 3-amino-L-phenylalanine, ring amine acylated by benzothiadiazine-7-carboxylic acid; PPAc(3) = 4-carboxymethyl piperazine linker between DOTA and Gln1, O=C(CN1CCN([*:1])CC1)[*:2]; Phe(3-NHCO(CH2)3SO2NH2) = N[C@@H](Cc1cccc(NC(=O)CCCS(N)(=O)=O)c1)C(=O)O; APAc″ = 2-(4-(amino)piperidin-1-yl)acetic acid, NC1CCN(CC(=O)*)CC1; DOTA = O=C(O)CN1CCN(CC(=O)O)CCN(CC(=O)*)CCN(CC(=O)O)CC1; PPAc = 4-carboxymethyl piperazine linker; mXylylene = c1cc(C[*:1])cc(C[*:2])c1; APAc = not defined here; Dap = NC[C@H](N)C(=O)O

Key:
[1] = target: T1, Fc-fusion protein of human carbonic anhydrase IX (human, UniProt Q16790 38-414); test: SPR, captured hCAIX-Fc; pKD category B: 7.1-8.0
Procedure: (§1) Stock solutions of test compounds were prepared by dissolving each compound in DMSO. DMSO stock solution were diluted 1:1000 in Running Buffer without DMSO. […] SPR binding analyses were performed in Single Cycle Kinetic (SCK) mode at 25° C.
(§2) For each test compound, SPR raw data in the form of resonance units (RU) were plotted as sensorgrams using the Biacore™ T200 control software. The signal from the blank sensorgram was subtracted from that of the test compound sensorgram (blank corrected). The blank corrected sensorgram was corrected for baseline drift by subtracting the sensorgram of a SCK run without the test compound (running buffer only). […] Raw data and fit results were imported as text files in IDBS. The pKD value (negative decadic logarithm of dissociation constant) was calculated in the IDBS excel template.

[2] = target: T1, Fc-fusion protein of human carbonic …; test: SPR, captured hCAIX-Fc; t1/2 category C: 2.1-5.0 min
[3] = target: T2, human carbonic anhydrase IX (CAIX) (human, UniProt Q16790 38-459); test: FACS competition, HT-29 cells, tracer 3BP-2776; pIC50 category B: 7.1-8.0
Procedure: (§3) CAIX-expressing human HT-29 colorectal cancer cells (DSMZ, RRID: CVCL_0320) were cultured in McCoys's 5A modified medium (Biochrom, #F1015) including 10% fetal calf serum (FCS), 2 mM L-glutamine, 100 U/ml penicillin and 100 μg/mL streptomycin. Cells were detached with Accutase (Biolegend, #423201) and washed in FACS buffer (PBS including 1% FCS). Cells were diluted in FACS buffer to a final concentration of 500.000 cells per ml. 200 μL of the cell suspension were transferred to a u-shaped non-binding 96-well plate (Greiner) and cells were washed in ice-cold FACS buffer.
(§4) When biotinylated compounds were used an additional incubation step with 1 μg/mL APC-Streptavidin (Miltenyi; #130-106-791) in 50 μL FACS buffer for 30 minutes on ice was performed.
(§5) Cells were washed twice with ice-cold FACS buffer and analyzed in an Attune NxT flow cytometer (Thermo Fisher). Median fluorescence intensities (MFI) of the APC/Cy5-channel were calculated by Attune NxT software.

[4] = target: Human carbonic anhydrase IX Fc-fusion protein (CAIX, Sino Biological, 10107-H02H) (human, UniProt Q16790 38-414); test: SPR (Biacore T200), CAIX-Fc captured by anti-human Fc antibody, peptide as analyte, single cycle kinetics, 25 C, 1:1 Langmuir fit
Procedure: Surface Plasmon Resonance (SPR) studies were performed on a Biacore™ T200 using a ligand capture approach. Basically, anti-human Fc antibodies were immobilized on the surface of a sensor chip and CAIX was captured on the functionalized surface via its Fc Tag.

[5] = target: T3, canine carbonic anhydrase 9 (CAIX) (dog); test: radioligand saturation binding on CHO cells with dog CAIX, 8 h at 37 C
T3 construct: also called dog CAIX; dgCAIX
Procedure: The radioligand saturation binding on CHO-huCAIX and dgCAIX was determined as follows. […] To determine total binding, 700 μL of binding medium and 100 μL of the radioligand dilutions were added to the wells in triplicates. […] The plates were incubated for 8 h at 37° C. under standard cell culture conditions (5% CO2). At the end of the incubation time the plates were placed on ice while aspirating the radioligand solutions. Aliquots of the 20 nM supernatants were transferred to HPLC vials for analysis of radioligand stability over the incubation time. Subsequently, the cells were washed with ice-cold PBS (0.5 mL, 1 mL, 1 mL). 300 μL of RIPA buffer containing PIC was added to each well and the plates were placed on a shaker for 10 min at ambient temperature. 200 μL of the cell lysate of each well was transferred to gamma-counting tubes. Their associated radioactivity was counted using a gamma counter and normalized to the measured protein concentration of each well (see chapter 6.3.7 BCA protein assay). An aliquot of each radioligand dilution was included in the gamma counter measurements to allow for determination of the actual radioligand concentrations in the dilution series.

[6] = target: T2, human carbonic anhydrase IX (CAIX); test: FACS competition, HT-29 cells, tracer 3BP-4149; pIC50 category C: 6.1-7.0
Procedure: as §3, §4, §5

[7] = target: T1, Fc-fusion protein of human carbonic …; test: SPR, CAIX; pKD category A: >8.0
Procedure: as §1, §2

[8] = target: T1, Fc-fusion protein of human carbonic …; test: SPR, captured hCAIX-Fc; pKD category A: >8.0
[9] = target: T4, human carbonic anhydrase IV (CAIV), biotinylated (human, UniProt P22748 19-283, limits assumed, biotinylated); test: SPR, biotinylated CAIV captured (Biotin CAPture)
T4 construct: Bought (SinoBiological, Cat # printed 10472-1H081H); also called hCAIV-bio
Excerpt: as §2

[10] = target: T5, human carbonic anhydrase XII (CAXII), biotinylated (human, UniProt O43570 25-301, biotinylated); test: SPR, biotinylated CAXII captured (Biotin CAPture)
T5 construct: Bought (SinoBiological Cat #10617-H08H); also called hCAXII-bio
Excerpt: as §2

[11] = target: T6, human carbonic anhydrase XIV (CAXIV), biotinylated (human, UniProt Q9ULX7 16-290, biotinylated); test: SPR, biotinylated CAXIV captured (Biotin CAPture)
T6 construct: Bought (SinoBiological Cat #10458-H08H); also called hCAXIV-bio
Excerpt: as §2

[12] = target: T1, Fc-fusion protein of human carbonic …; test: SPR, captured hCAIX-Fc; t1/2 category A: >15.0 min

T3 sequence (chain, as listed by the source limits assumed): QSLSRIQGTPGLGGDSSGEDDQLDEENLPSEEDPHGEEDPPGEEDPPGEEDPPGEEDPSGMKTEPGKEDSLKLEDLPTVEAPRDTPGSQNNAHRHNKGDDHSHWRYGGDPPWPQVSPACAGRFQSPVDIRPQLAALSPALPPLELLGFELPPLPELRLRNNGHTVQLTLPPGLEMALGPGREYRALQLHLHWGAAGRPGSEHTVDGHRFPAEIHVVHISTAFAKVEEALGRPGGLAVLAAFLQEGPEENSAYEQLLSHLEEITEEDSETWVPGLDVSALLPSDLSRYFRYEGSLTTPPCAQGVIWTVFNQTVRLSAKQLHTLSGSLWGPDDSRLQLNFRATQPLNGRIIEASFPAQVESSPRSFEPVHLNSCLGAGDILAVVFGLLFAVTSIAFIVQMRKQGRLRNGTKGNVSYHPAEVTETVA
T4 sequence (P22748 19-283 limits assumed): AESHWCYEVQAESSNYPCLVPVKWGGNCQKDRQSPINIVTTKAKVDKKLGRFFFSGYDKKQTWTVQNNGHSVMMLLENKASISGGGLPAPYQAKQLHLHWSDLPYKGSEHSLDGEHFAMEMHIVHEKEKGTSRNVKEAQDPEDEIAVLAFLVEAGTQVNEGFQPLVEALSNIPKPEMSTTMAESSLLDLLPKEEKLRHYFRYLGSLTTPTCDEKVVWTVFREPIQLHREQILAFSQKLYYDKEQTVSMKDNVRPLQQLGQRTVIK
T5 sequence (O43570 25-301 limits assumed): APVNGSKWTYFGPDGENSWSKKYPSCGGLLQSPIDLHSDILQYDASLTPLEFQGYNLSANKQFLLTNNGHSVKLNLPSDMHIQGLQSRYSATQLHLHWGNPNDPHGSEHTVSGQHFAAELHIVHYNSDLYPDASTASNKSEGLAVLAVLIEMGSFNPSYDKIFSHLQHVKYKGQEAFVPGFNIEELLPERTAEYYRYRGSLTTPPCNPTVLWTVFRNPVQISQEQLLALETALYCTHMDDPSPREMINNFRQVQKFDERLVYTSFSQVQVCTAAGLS
T6 sequence (Q9ULX7 16-290 limits assumed): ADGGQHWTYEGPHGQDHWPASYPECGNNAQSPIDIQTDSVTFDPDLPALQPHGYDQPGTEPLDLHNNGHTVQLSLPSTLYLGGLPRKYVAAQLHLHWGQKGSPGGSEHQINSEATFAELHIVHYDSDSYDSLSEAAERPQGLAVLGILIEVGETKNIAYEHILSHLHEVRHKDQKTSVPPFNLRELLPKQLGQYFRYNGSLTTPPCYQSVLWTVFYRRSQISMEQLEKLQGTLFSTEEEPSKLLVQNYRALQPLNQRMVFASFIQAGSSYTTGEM

t1/2 (dissociation half-life) [4]: 1.87 h
B1: natGa-DPI-4452 (GaDOTA-PPAc-Gln-[Cys(3MeBn)-Glu-pro-Asp-Af3(Cpsu)-Leu-Thr-Trp-Ser-Cys]-NH2) (peptide)
peptide: {DOTA-PPAc(3)}-QCE[dP]D[Phe(3-NHCO(CH2)3SO2NH2)]LTWSC-NH2
modifications: linker 2-11 via mXylylene; also: natGa chelated by N-terminal DOTA
notes: Gallium complex of DPI-4452; also called 3BP-4529

t1/2 (dissociation half-life) [4]: 1.65 h
B2: DOTA-PPAc-Gln-[Cys(3MeBn)-Glu-pro-Asp-Af3(Cpsu)-Leu-Thr-Trp-Ser-Cys]-NH2 (peptide)
peptide: {DOTA-PPAc}-QCE[dP]D[Phe(3-NHCO(CH2)3SO2NH2)]LTWSC-NH2
modifications: linker 2-11 via mXylylene
notes: Synthetic cyclic peptide with uncomplexed DOTA; X stands for the non-natural residue Af3(Cpsu); also called DPI-4452; 3BP-4452

t1/2 (dissociation half-life) [4]: 2.05 h
B4: natLu-DPI-4452 (LuDOTA-PPAc-Gln-[Cys(3MeBn)-Glu-pro-Asp-Af3(Cpsu)-Leu-Thr-Trp-Ser-Cys]-NH2) (peptide)
peptide: {DOTA-PPAc(3)}-QCE[dP]D[Phe(3-NHCO(CH2)3SO2NH2)]LTWSC-NH2
modifications: linker 2-11 via mXylylene; also: natLu chelated by N-terminal DOTA
notes: Lutetium complex of DPI-4452; also called 3BP-4555

Continued, binder first:

Binder: {DOTA-PPAc}-QCE[dP]D[Af3(Hspy)]LTWSC-NH2 (linker 2-11 via mXylylene) [3BP-4789]
pKD [1]: 7.1 to 8 pkd | t1/2 (half-life of the complex, SPR) [2]: 2.1 to 5 min | pIC50 [3]: 7.1 to 8 pic50

Binder: {DOTA-PPAc}-QCE[dP]D[Aph(Hsfu)]LTWSC-NH2 (linker 2-11 via mXylylene) [3BP-4813]
pKD [1]: 7.1 to 8 pkd | t1/2 (half-life of the complex, SPR) [2]: 2.1 to 5 min | pIC50 [3]: 7.1 to 8 pic50

B3: [111In]In-DPI-4501: 111In-DOTA-Q-[C(3MeBn)-EPD-Aph(SaPr)-LTWSC]-NH2 (peptide)
peptide: {DOTA}-QCE[dP]D[Aph(SaPr)″]LTWSC-NH2
modifications: linker 2-11 via mXylylene; also: 111In complexed in DOTA
notes: also called 111In-3BP-4501; In-111-labeled DPI-4501
pKd [5]: ≥ 9

Binder: {DOTA-PPAc}-QCE[dP]D[Aph(6SaPyr3)]LTWSC-NH2 (linker 2-11 via mXylylene) [3BP-4481]
pIC50 [6]: 6.1 to 7 pic50

Binder: {DOTA-APAc″}-VDCE[dP]DWLTW[Dap]C-NH2 (lactam 2-11; linker 3-12 via mXylylene) [3BP-4174]
pKD [7]: > 8 pkd | pKD [8]: > 8 pkd | pKD [9]: < 6 pkd | pKD [10]: < 6 pkd | pKD [11]: < 6 pkd | t1/2 (half-life of the complex, SPR) [12]: > 0.25 h

Binder: {DOTA-APAc}-VYCE[dP]D[Af3(Btda)]LTWSC-NH2 (linker 3-12 via mXylylene; reading uncertain) [3BP-4415]
pIC50 [6]: 6.1 to 7 pic50
